Among the data in US20240084003A1 are Cell mean fluorescence intensity, Cell mean fluorescence density and Maximum mean fluorescence intensity values, retold here.

Experiment [1] deals with human CD22 (full length, on cells) (human) (UniProt P20273). The experiment in a line: FACS on CHO-K1-human CD22 clone 1D9.
For experiment [2] the target is unchanged. The experiment in a line: FACS on CHO-K1-human CD22 clone 1G5.
For experiment [3] the target is unchanged. The experiment in a line: FACS on CHO-K1-human CD22 clone 2C4.
Experiment [4] has the same target. Nature of the experiment: FACS on Raji cells, control of the HA22 row.
Experiment [5] has the same target. The experiment in a line: FACS on Raji cells, control of the m971 row.
In experiment [6] the target is monkey CD22 on HEK293T-monkey CD22 cells (monkey). The experiment in a line: FACS, HEK293T-monkey CD22 cells. A general note: A flow cytometer gives signals particle by particle.
monkey CD22 on HEK293T-monkey CD22 cells (monkey), sequence (chain, as listed by the source limits assumed): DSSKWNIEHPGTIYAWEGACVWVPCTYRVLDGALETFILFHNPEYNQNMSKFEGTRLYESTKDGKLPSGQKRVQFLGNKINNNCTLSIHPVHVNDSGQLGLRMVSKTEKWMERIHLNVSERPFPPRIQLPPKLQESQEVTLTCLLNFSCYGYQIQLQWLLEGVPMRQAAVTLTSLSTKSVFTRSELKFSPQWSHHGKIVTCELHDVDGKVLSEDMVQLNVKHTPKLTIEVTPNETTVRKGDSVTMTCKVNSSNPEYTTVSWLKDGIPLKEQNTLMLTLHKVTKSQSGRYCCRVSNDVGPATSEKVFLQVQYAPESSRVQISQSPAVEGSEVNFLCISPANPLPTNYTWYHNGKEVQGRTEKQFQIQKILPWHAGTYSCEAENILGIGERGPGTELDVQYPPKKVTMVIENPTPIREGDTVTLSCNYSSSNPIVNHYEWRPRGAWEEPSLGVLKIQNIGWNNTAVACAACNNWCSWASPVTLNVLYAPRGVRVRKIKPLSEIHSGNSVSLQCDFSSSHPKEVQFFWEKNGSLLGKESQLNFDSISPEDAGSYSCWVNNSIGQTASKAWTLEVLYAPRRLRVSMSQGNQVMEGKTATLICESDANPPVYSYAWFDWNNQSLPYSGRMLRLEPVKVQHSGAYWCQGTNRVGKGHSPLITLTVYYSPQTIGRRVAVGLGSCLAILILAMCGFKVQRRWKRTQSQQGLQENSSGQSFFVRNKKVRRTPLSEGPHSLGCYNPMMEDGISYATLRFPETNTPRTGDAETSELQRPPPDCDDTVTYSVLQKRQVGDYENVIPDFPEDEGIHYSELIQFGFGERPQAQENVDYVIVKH
Experiment [7] has as its target human CD22, endogenous on Raji cells (human) (UniProt P20273). The experiment in a line: FACS, Raji cells.
Experiment [8] addresses human CD22, full length, on CHO-K1-human CD22 2C4 cells (human) (UniProt P20273). Nature of the experiment: FACS, CHO-K1-human CD22 2C4 cells.

human CD22 (full length, on cells) (human), sequence (P20273 20-847 limits assumed): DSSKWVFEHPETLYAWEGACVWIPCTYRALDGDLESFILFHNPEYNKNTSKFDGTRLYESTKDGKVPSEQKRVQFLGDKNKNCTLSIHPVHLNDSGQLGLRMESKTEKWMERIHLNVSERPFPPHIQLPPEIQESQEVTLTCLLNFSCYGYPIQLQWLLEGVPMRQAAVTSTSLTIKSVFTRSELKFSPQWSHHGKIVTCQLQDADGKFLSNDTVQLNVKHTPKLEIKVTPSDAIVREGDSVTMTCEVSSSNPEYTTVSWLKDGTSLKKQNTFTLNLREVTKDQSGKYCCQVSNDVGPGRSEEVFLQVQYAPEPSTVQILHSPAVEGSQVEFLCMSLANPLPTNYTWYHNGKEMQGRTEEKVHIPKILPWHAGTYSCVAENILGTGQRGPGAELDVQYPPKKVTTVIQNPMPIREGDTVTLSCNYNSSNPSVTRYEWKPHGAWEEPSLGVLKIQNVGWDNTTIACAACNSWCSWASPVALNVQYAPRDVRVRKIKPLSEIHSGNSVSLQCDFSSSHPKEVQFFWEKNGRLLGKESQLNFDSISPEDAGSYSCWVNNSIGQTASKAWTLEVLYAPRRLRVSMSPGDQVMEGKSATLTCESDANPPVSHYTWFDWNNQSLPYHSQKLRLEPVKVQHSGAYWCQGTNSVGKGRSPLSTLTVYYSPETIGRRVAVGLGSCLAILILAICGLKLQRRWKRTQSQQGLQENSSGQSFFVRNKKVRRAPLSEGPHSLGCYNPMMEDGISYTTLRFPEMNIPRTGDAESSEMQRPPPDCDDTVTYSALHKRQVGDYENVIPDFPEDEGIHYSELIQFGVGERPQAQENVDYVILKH
human CD22, endogenous on Raji cells (human), sequence (P20273 20-847): as the sequence (P20273 20-847 limits assumed) above
human CD22, full length, on CHO-K1-human CD22 2C4 cells (human), sequence (P20273 20-847 limits assumed): as above

On to IgG subtype control (antibody), for which the Cell mean fluorescence intensity in experiment [1], in experiment [2] and in experiment [3] was 66 MFI in each case. The Cell mean fluorescence density in experiment [4] and in experiment [5] was 44 MFI throughout.

Turning to anti-hel-hIgG1 (antibody), the Maximum mean fluorescence intensity in experiment [6] came out at 129 MFI.

Turning to “anti-hel-hIgG1 (negative control antibody against chicken egg lysozyme)”, the Maximum mean fluorescence intensity in experiment [7] is 564 MFI; in experiment [8], 150 MFI.
